US20070054848

Target: recombinant full-length p21 (1-164 in SEQ ID NO: 23)
Sequence (chain, as listed by the source): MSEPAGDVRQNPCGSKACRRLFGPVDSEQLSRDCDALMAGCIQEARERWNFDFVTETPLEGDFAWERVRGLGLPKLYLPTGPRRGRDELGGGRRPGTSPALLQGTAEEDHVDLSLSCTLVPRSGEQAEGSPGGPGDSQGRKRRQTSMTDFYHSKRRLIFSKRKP

B1: Rho kinase fragment (aa 1-543, Upstate Biotechnology) (protein)
chain: MSRPPPTGKMPGAPETAPGDGAGASRQRKLEALIRDPRSPINVESLLDGLNSLVLDLDFPALRKNKNIDNFLNRYEKIVKKIKGLQMKAEDYDVVKVIGRGAFGEVQLVRHKASQKVYAMKLLSKFEMIKRSDSAFFWEERDIMAFANSPWVVQLFYAFQDDRYLYMVMEYMPGGDLVNLMSNYDVPEKWAKFYTAEVVLALDAIHSMGLIHRDVKPDNMLLDKHGHLKLADFGTCMKMDETGMVHCDTAVGTPDYISPEVLKSQGGDGFYGRECDWWSVGVFLYEMLVGDTPFYADSLVGTYSKIMDHKNSLCFPEDAEISKHAKNLICAFLTDREVRLGRNGVEEIRQHPFFKNDQWHWDNIRETAAPVVPELSSDIDSSNFDDIEDDKGDVETFPIPKAFVGNQLPFIGFTYYRENLLLSDSPSCRENDSIQSRKNEESQEIQKKLYTLEEHLSNEMQAKEELEQKCKSVNTRLEKTAKELEEEITLRKSVESALRQLEREKALLQHKNAEYQRKADHEADKKRNLENDVNSLKDQLEDL
For B1, the “Rho-kinase activity toward S6 kinase substrate peptide ([γ-32P] ATP, scintillation counting)” value was “the estimated IC50 value was 1.43 nM”.
